{"source": "patent US5968509", "target": "human CD3 antigen (human) (UniProt P07766)", "sequence (P07766 23-207)": "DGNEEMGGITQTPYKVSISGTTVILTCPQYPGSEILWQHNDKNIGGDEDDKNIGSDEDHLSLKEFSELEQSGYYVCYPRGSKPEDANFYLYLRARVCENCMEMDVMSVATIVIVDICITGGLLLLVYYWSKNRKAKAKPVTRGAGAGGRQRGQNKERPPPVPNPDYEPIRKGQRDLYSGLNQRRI", "experiment": "competitive flow cytometry on HPBALL cells; competitor: biotinylated monovalent humanised CD3 Mab"}
{"binder": "humanised bivalent CD3 Mab (antibody, V domains shown) VH: EVQLLESGGGLVQPGGSLRLSCAASGFTFSSFPMAWVRQAPGKGLEWVSTISTSGGRTYYRDSVKGRFTISRDNSKNTLYLQMNSLRAEDTAVYYCAKFRQYSGGFDYWGQGTLVTVSS VL: DFMLTQPHSVSESPGKTVIISCTLSSGNIENNYVHWYQQRPGRAPTTVIFDDDKRPDGVPDRFSGSIDRSSNSASLTISGLQTEDEADYYCHSYVSSFNVFGGGTKLTVL", "values": [{"measurement": "fold concentration for 50% competition, against rat YTH12.5 Mab", "result": 1.3, "unit": "fold"}]}
